Experimental data reported in the DeepSol protein solubility set.

assay: soluble on expression in E. coli; label from the status in PepcDB or PDB records

**Q.** Which “soluble on expression in E. coli” value does the source give for “MTYNVWNFGESNGRYSALTARGISKETCQKAGYWIAKVDGVMYQVADYRDQNGNIVSQKVRDKDKNFKTTGSHKSDALFGKHLWNGGKKIVVTEGEIDMLTVMELQDCKYPVVSLGHGASAAKKTCAANYEYFDQFEQIILMFDMDEAGRKAVEEAAQVLPAGKVRVAVLPCKDANECHLNGHDREIMEQVWNAGPWIPDGVVSALSLRERIREHLSSEESVGLLFSGCTGINDKTLGARGGEVIMVTSGSGMVMSTFVRQQALQWGTAMGKKVGLAMLEESVEETAEDLIGLHNRVRLRQSDSLKREIIENGKFDQWFDELFGNDTFHLYDSFAEAETDRLLAKLAYMRSGLGCDVIILDHISIVVSASGESDERKMIDNLMTKLKGFAKSTGVVLVVICHLKNPDKGKAHEEGRPVSITDLRGSGALRQLSDTIIALERNQQGDMPNLVLVRILKCRFTGDTGIAGYMEYNKETGWLEPSSYSGEEESHSESTDWSNDTDF” here?
**A.** Its value is “soluble”.

**Q.** With “MIKEQVKSLWKLCFDDSEAFIELYFRLRYNNEVNLAIQSGEEVIAALQMLPYPMTFCNKIVPTSYISGACTHPDYRAKGVMRELLSQSFARMLRNGVLFSTLIPAEPWLFGYYAKTGYTPAFRISHKVFSLSELTIGPEPDTMIEETTEYQEDYYQYLTGKLSERACCLQHTPTDFKVVLADLALTQNTVLIARKDNRVTGIAVVYKHDDSSYINELFADNEAVRAQLLYRAGLRNGTERIILQLPPVESLPSVPLGMARIIDARAVLQLYAAGCPEVEMNIELTDEQLSVNNGYYYLCKGKCMTSEVRLPGVHTRMTIAELSEKILGEMQPYMSLMMN” as the sequence, how does the “soluble on expression in E. coli” value read?
**A.** Its value is “not soluble”.

**Q.** For “MGSEQNDSTSFTQSQASEPKLCVKGCGFFGSPSNMDLCSKCYRGICAEEAQTAVAKAAVEKSFKPSPPRSLFIAEPPAVVVEPKPEKAAVVVVSAEPSSSAVPEANEPSRPARTNRCLCCNKKVGIMGFKCKCGSTFCGEHRYPETHDCSFDFKEVGRGEIAKANPVVKADKIQRF”, which “soluble on expression in E. coli” value is on record?
**A.** The value was “soluble”.

**Q.** Which “soluble on expression in E. coli” value does the source give for “KMAHIGSWKWDIVTGELYWSDELYLIFGLDPQEFRPAYNSFFNYIHPGDRDFVDNAIKKALNGEQLYDNDHRIISADGEERIVHSHGEVIFDEKNTPVRMRGTLQDIT” here?
**A.** Its value is “not soluble”.

**Q.** With “MTEDGVMKIDASTSTIKEPEPADCVILPTHTNEQVVYYKSWIAFGDNPNYLTYNRDLGYADWYGIVDCSDSPPTGPGVYKAFIYVNDLNYQESGNPLFKVTGRLKFLANKDTSDTMMKLEIFEQNRLEELRLSPKKMSDSQVIAIILFDNEETNSAICYSEQLESSIKVHLPVGSPAKAGQLILFTEYNYENDTYFPDPRPDAIEYRECEMTRIENGELLISAKAACSSIETHITYPQSVAFADTFGKVNVAAESMERGVTYRVELAINIIDSEANNVPLFKISDIGEKLTGEENEAFLRKLNDFEELQGTWEDWTPEEIAVELEPVAAAEEPADPEVEEAKIEENGVNDESLTQSESDSVFLPQIESSASSEETMSESNSAENSEKPKKTFGRMPQSLSESSSSTISSSKVGVDHSVIVLNVDNDECVGFETTQLKLMTICTAGVTVPLRPYGIFQFIAAGNNYGKTSIQTQSARVSECEGAVFSSDDVPKISANVIFSSNPKHKSYNKEVGVSDRYGFVEIPRITGDFEFGTVYSTQITMVQYGDPLKACFKAVAPLKRQFIDDLDHYLQVMGKYEDNIYQLSRKNGLGAKSISRLPNEPRNGSKHGSTKRFTTPHVTGLVVDMEKRGNYFGCVWTCFGDVVFKSTPTFSQNGGYPSVGDLVNIRVEILSPGTKDQKNLGASMTEKPASLSTTVIWRNNGFIVKAYLIMKPEKLIYSEDNNRFYEHDQLGIVVADSSIYGSDNEQSKVFEFERLRNPITLGFTTNLMNKCYWAARLPMIHREPSPPEPINKYNDENVYDDFQKGGPQSVNSYRSDRQYQEKPPMQYQSYHDPADTISIHSQDNHRPMETRSNAGTSVSSVDRKEVGVVMKKVDKNTQIVYLSGQKAAAIHHWNTHSQSTIVGNSYIFMYRPIEVHKATHYAPFEITQVVEILNTENHGRVDRSEFSSLFTFDLCNVDQRYVERLAFGEALVLRSNDVGHVVMASNVKTPLNPSMTAVEVCQTYKGKRESENLVGYCRLVYGKVPREIVDGHFSDQFVSAYYFELHEILATSNAYIVRNENLDRRNLRGNTIEEVRDDISIQKRIAHMNFGQNEQQQQQSSLSSRGPTRPYSPVGSYQSSHQNFDNRSAAHNGDGRSTSQSHHSAGGSMNHQNFYQPPVYQSSSSQQSYQPRYNGAPSGPLPPPSSQSSFNGAPAPPHYSEMSNDYNRMVRKLAELTDTAAQMIINNDIRQQIKNISPDLLDDLERNIDACQREKRHYYEKYGN” as the sequence, how does the “soluble on expression in E. coli” value read?
**A.** The value was “not soluble”.

**Q.** Which “soluble on expression in E. coli” value does the source give for “NPYDVVVIGGGPGGYVASIKAAQLGMKTACVEKRGALGGTCLNVGCIPSKALLHATHLYHDAHANFARYGLMGGEGVTMDSAKMQQQKERAVKGLTGGVEYLFKKNKVTYYKGEGSFETAHSIRVNGLDGKQEMLETKKTIIATGSEPTELPFLPFDEKVVLSSTGALALPRVPKTMVVIGGGVIGLELGSVWARLGAEVTVVEFAPRCAPTLDEDVTNALVGALAKNEKMKFMTSTKVVGGTNNGDSVSLEVEGKNGKRETVTCEALLVSVGRRPFTGGLGLDKINVAKNERGFVKIGDHFETSIPDVYAIGDVVDKGPMLAHKAEDEGVACAEILAGKPGHVNYGVIPAVIYTMPEVASVGKSEDELKKEGVAYKVGKFPFNANSRAKAVSTEDGFVKVLVDKATDRILGVHIVCTTAGELIGEACLAMEYGASSEDVGRTCHAHPTMSEALKEACMALFAKTINF” here?
**A.** The value was “soluble”.

**Q.** With “GPGSGLTELQMRARRCPNRQARIDWSEGEVRSFYQALSQYGTDFSAIAVLFPSRSRRDIKRLYQREMRQKPKEVQAALNQKHPIDMAVFEVRYEAKKKEAQQPVKMKKLNSEELAFLDEIAGRQPSESAMHMKGEELEVPVPAATLGGVEEATAAPPSRLRKRPRGTHQADSEDGPESKRATKEIPPAADDDFDMEQESFFDMVVRHEREDNAPLDMLFAAQLEQGQQQHLAALEDSDFSFE” as the sequence, how does the “soluble on expression in E. coli” value read?
**A.** Its value is “soluble”.

**Q.** Which “soluble on expression in E. coli” value does the source give for “GPGSMITDSHIMRLVTDGRMEMFPAVPPPSADGNGVVMLSCYQRGPLLPPTPPRPSSGRNDRIMWDSWQTRPVPQYRGNPETKTQRGVADWQHVPFACPFLRPVVTDVDRAVRGGNATRWLPTPFVGPQVFTVKDKSAGGVLVEQKEAPSSSTS” here?
**A.** The value was “not soluble”.

**Q.** Which “soluble on expression in E. coli” value does the source give for “GIDPFTMAKKDGAIEVEGRVVEPLPNAMFRIELENGHKVLAHISGKMRQHYIRILPEDRVVVELSPYDLSRGRIVYRYK” here?
**A.** Its value is “soluble”.

**Q.** For “QDSLPDTKASGPAHSKEVPALTAVETGATNPLAPSDTVQTRHVVQRRSRSESTIESFFARGACVAIIEVDNEQPTTRAQKLFAMWRITYKDTVQLRRKLEFFTYSRFDMEFTFVVTANFTNANNGHALNQVYQIMYIPPGAPTPKSWDDYTWQTSSNPSIFYTYGAAPARISVPYVGLANAYSHFYDGFAKVPLKTDANDQIGDSLYSAMTVDDFGVLAVRVVNDHNPTKVTSKVRIYMKPKHVRVWCPRPPRAVPYYGPGVDYRNNLDPLSEKGLTTY”, which “soluble on expression in E. coli” value is on record?
**A.** Its value is “soluble”.

**Q.** Which “soluble on expression in E. coli” value does the source give for “NSRVSDLDLELLFQDRAARLGKSISRLIVVASLIDKPTNLGGLCRTCEVFGASVLVVGSLQCISDKQFQHLSVSAEQWLPLVEVKPPQLIDYLQQKKTEGYTIIGVEQTAKSLDLTQYCFPEKSLLLLGNEREGIPANLIQQLDVCVEIPQQGIIRSLNVHVSGALLIWEYTRQQLLSHGDTKP” here?
**A.** The value was “soluble”.

**Q.** With “MGSDKIHHHHHHMPLSMNREVFITCAVTGSGGTQDRSPHVPRSPKEIAESAIAAAKAGAAIVHCHVRDPETGAPSRDLGLYREVTDRIRESDTDVVLNLTAGMGGDIVFGGVERPLPVTEDGTDMIGASARVAHVAECLPEICTLDCGTMNFAEADYVMTNTPGMLQAMGQMMTDLGVKPEIEAFDTGHLWYAKQLVKDGVLKSDALVQLCMGVPWGAPNDLNTFMAMVNNVPDDWNWSAFSLGRDQMAYVAASVLAGGNVRVGLEDNLYLDKGVLAENWQLVERAGTIVSNLGARVITPAEVREKLGLQKRAPITK” as the sequence, how does the “soluble on expression in E. coli” value read?
**A.** The value was “not soluble”.
